Assay results published in patent publication US20060073571A1.

Target: recombinant chimeric hLH-R-hCG-β fusion protein (full-length human lutropin hormone receptor, Arg-Ser linker, full-length human chorionic gonadotropin-β) (human)
Experiment: cell-based or functional assay

Chain of recombinant chimeric hLH-R-hCG-β fusion protein (full-length human lutropin hormone receptor, Arg-Ser linker, full-length human chorionic gonadotropin-β) (human) (chain, as listed by the source mutant limits assumed): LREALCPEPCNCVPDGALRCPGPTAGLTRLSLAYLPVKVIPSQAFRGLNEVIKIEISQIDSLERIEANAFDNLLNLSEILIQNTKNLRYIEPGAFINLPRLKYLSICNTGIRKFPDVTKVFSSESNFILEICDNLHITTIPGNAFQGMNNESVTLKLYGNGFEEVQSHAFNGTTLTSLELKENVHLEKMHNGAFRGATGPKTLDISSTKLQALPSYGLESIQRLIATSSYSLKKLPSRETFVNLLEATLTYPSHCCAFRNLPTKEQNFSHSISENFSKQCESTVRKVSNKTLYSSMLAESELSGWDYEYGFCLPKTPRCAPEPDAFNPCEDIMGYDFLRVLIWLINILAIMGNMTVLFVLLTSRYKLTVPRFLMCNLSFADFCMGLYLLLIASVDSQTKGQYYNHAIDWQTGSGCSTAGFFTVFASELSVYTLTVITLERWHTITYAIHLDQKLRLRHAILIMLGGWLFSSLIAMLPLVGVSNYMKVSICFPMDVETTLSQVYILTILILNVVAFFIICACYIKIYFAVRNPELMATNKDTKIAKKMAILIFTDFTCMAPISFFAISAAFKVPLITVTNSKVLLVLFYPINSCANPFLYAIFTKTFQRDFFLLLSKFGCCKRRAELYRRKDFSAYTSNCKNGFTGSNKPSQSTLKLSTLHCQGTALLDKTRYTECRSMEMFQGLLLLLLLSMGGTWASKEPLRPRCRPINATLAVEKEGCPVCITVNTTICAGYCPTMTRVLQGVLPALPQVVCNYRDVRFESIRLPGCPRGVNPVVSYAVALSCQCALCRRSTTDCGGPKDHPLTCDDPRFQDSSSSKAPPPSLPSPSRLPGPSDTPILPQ

intracellular cAMP in transfected Sf9 cells in the absence of hCG: 13.2 pmol/L
Substance: hCG-β component of the chimeric hLH-R-hCG-β protein (full-length human chorionic gonadotropin-β subunit) (from UniProt P0DN86 21-165) (ligand)
